According to the nanobody polyreactivity screen of Harvey et al. (2022):

Test: yeast display, Sf9 membrane polyspecificity reagent, FACS + sequencing; frameworks hold sequencing errors
Procedure, shortened: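 In a synthetic yeast display library (Saccharomyces cerevisiae BJ5465), nanobody expression was induced with galactose for 36–48 hours. FACS gates were set low and high (top ~1%) using anti-HA fluorescence for expression and streptavidin fluorescence for binding of the Sf9 membrane reagent. Each polyreactivity label is drawn from the gate of origin.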

Sequence	polyreactivity (PSR sort gate)
QVQLEESGGGLVQAGGSLPLSCASSGRIFCVYAMGWYRQAPGKESELVATITSGGSTSYADSVKGRFTISRDNANYTVYLLMNSLKPEDTAVYYCNGPYSFFWQQMNYWGHGTQVTVSS	low polyreactivity
QVQLQESGGALVQAGGSLRLSCAASGNIYDADIMGWYRQAPGKERELVTSITDGGSTNYADSVKGRFTISRDNAKNTVYLQMNSLKPQDTAVYYCAAIAYPDIPTSFDYNSDYSYWGQGTQVTVSS	low polyreactivity
QVQLVESGGGLVQAGGSLRLSCAASGSTFQYNVMGWYRPAPGKERELVATISYSSGRTYYADSVKGRFTISRDNAKNTVYLQMNSLKPEDTAVYYCAAAVRLYFWTSAYKYGYWGQGTQVTVSS	high polyreactivity
QVQLVESGGGLVQAGGSLRLSCAASGNTFGGYAMGWYRQAPGKERELVAAIRYSGTSTYYADSVKGRFTISRDNAKNTVYLQMNSLKPEDTAVYYCAATYTRVPNRFYYWGQGTQVTVSS	high polyreactivity
QVQLVESGGGLVQAGGSLRLSCAASGSIFYQYAMGWYRQAPGKERELVAAISVRAGITYYADSVKGRFTISRDNAKNTVYLQMNSLKPEETAVYYGAKDHWTTSYDEGDYWGQGTQVTVSS	low polyreactivity
QVQLVESGGGLVQAGGSLRLSCAASRRIIYRSAMGWYRQAPGKERELLAAITSGDSTYYADSVKVRFTISRDNSKNTVFLQMNSLKPEDTAVYYCAADYLSRSPAYEHYYWGQGTQVTVSS	high polyreactivity
QVQLVESGGGLVQAGGSLRLSCAASGFISGVNTMGWYSQAPGKERELVAAISSGGRTHYADSVKGRFTISRDNAKNTVYLQMNSLKPEDTAVYYCATRVRSTTRYYYWGLGTQVTVSS	high polyreactivity
QVQLVESGGGLVQAGGSLRLSCAASGSILQDYAMGWYRQAPGKERELVAAISNSGDSTYYADSVKGRFTISRDNAKNTVYLQMNSLKPEDTAVYYCNAAVYPYALYSGGLDYDYWGQGTQVTVSS	low polyreactivity
QVQLVESGAGLVQEGGSLRLSCAASGRTSGFNTMGRYRQAPGKETQLVAAISFSGGSTYYADSVKGRFTISRDNEKNTVYLQMNSLKPEDTEVYYCNALYRYLYRSGDYWGQGTQVSVSS	low polyreactivity
QVQLVESGGGLVQAGGSLRLTCAASGFIFYAYTMRCYRQAPGKERELVAAISRSGGRTYYADSVKGRFTISRDNAKNTVYLQMNRLKPEDTAVYYCAAEYRGVPRVVVDYDYWGQGTQVTVSS	high polyreactivity
QVQLVESGGGLVQAGGSLRLSCAASGIIFTDNAMGWYRQAPGKERELVATISWSTDNTYYADSVKGRFTISRDNAKNTVYLQMNSLKPEDTAVYYCAAEEYYAYWYQYDYWGQGTQVTVSS	low polyreactivity
QVQLVESGGGLVQAGGSLRLSCAASGFTFFGNAMGWYRQAPGKERELVAAITGRAGRTYYADSVKGRFTISRDNAKNTVYLQMNSLKPEDTAVYYCAAKIRTSDMGYWGQGTQVTVSS	high polyreactivity
QVQLVESAGGLVQAGGSLRLSCAASASIFYVYSMGWSRQAPGKEREFVAAISWRGGSTYYADSVKGRFTISRDNAKNTVYLQMISLKPEDTAVFYCNGRRLGYRSGHPGYYWGQGTQVTVSS	high polyreactivity
QVQLVESGGGLVQAGGSLRLTCAASGSIFYLNAMGWYRQAPGKERELVATISNGGSTNYADSVKGRFTISRDNAKNTVYLQMYSLKPEDTAVYYCAAASGGTVVGEGDYWGLGTQVTVSS	low polyreactivity
QVQLVESGGGLVQAGGSLRLSCAASGRNFSYYAMGWYRQAPGKERELVAFISSGGNTYYADSVKGRFTISRDNAKNTVYLPMNSLKPEDTAVYYSGADPNAQGYPQVNYWGQGTQVTVSS	high polyreactivity
QVQLVESGGGLVQAGGSLRVSCAASGRTFGGYAMGWYRQAPGKERELVAAISDRGTSTYYADSVKGRFTISRDNAKNTVYLQMNSLKPEDTAVYYCAARINYWGYYYWGQGTQVTVSS	high polyreactivity
QVQLVESGGGLVQAGGSLRLSCAASGSIFSYYAMGWYRQAPGKERELVAAITSGGATTYYADSVKGRFTISRDNAKNTVYLQMNSLKPEDTAVYYCAAGYYVYYRWWELDYWGQGTQVTVSS	low polyreactivity
QVQLVESGGGLVQAGGSLRLSCAASGRILYPYAMGWYIQAPGKERELVAAITFIGGSTYYADSVKGRFTISRDNAKNTVYLQMNSLKPEDTAVYYCNAKPHRPSLLRWRIGNYWGQGTQVTVSS	high polyreactivity
QVQLVESGGGLVQAGGSLRLSCAASGSTFGYYAMGWYRQAPGQERELVAAITSGGSTKYADSVKGRFTISRDNAKNTVYLQLISLKPEDNAVYYCATSRYFGYGYWGQGTQVTVSS	low polyreactivity
QVQLVESGGGLVQAGGSLRLSCAASGYIFSYNAMGWYRQAPGKERELVAAISRTGGSTNYADSVKGRFTISRDNAKNTVYLQMNSLKPEDTAVYYCAKRYRYPSWGEYGYWGQGTQVTVSS	high polyreactivity
QVQLVESGGGLVQAGGSLRLSCAASGLIFSYNAMGWYRQAPGKERELVAAISANGGRTYYADSVKGRFTISRDNAKNTVSLQMNSLKPEDTAVYYCAAQGSRKLFYTDSGYWGQGTQVSVSS	high polyreactivity
QVQLVESGGGLVQAGGSLRLSCAASGRTFGVYMGWYRQAPGKERELVAVISSGDSTNYADSVKGRFTISRDNAKNTVYLQMNSLKPEDTAVYYCNAYGSDRLTLDDYWGQGTQVTVSS	low polyreactivity

Sequence	polyreactivity (PSR sort gate)
QVQLVESGGALVQAGGSLRLSCAASAFIFRINAMGWYRQAPGKERELVAAISGSGGRTYYADSVKGRFTISRDNAKNTVYLQMNSLKPVDTAVYYCARSSGYGFNYWGQGTQVTVSS	high polyreactivity
QVQLVESGGGLVQAGGSLRLSCAASGITFVYYVMGWYRQAPGKERELVAGISSGGSTYYADSVKGRFTISRDNAKNTVYLQMNSLKPEDTAVYYCAAVSTPYYGHVKRYYYWGQGTQVTVSS	high polyreactivity
QVQLVESGGGLVQAGGSLRLSSAASGSIFLGNAMGWYRQAPGKERELVAAISSITGRTYYADSVKGRFTISRDNAKNTVYLQMNSLKPEDTAVYYCAATSLIYGYRTYDYWGQGTQVTVSS	high polyreactivity
QVQLQESGGGLVQAGGSLRQSYAASGYIFPSLAMGWYRQAPGKEREFVAAIGRGSTNNYADSVQGRFTISRDNAKNTAYQQMNSLKPEDTAVYYCAAAASPLTRHLYWGQGTQVTVSS	low polyreactivity
QVQLVESGGGLVQAGGSLRLSCAASGRIGNTMGWYRQAPGKERELVATISSSGGSTYYADSVKGRFTISRDNAKNTVYLQMNSLKPEDTAVYYCAVEYYGYSTSGRYLSPYNYWGQGTQVTVSS	low polyreactivity
QVQLVESGGGLVQAGCSLRLSCAASGRTGFNAMGWYRQAPGKERELVASIRSGGTSTYYADSVKGRFTISRDNAKNTVYLQMNSLKPEDTAVYYCYDYWGHGTQVTVSS	low polyreactivity
QVQLVESGGGLVQAGCSLRLICAASGRIFSTYAMGWYRQAPGKERELVAAITSRGGSTYYADSVKGRFTISRDNAKNTVYLQMNSLKPEDTAVYYCATESPYKWGGYRFYYWGQGTQVTVSS	high polyreactivity
QVQLVESCGGLVQAGGSLRLSCAASGGTIVFYAMGWYRQAPGKERELVAAISSSGGSTYYADSVKGRFTISRDNAKNTVYLQMNSLKPEDTAVYYCNTPSYSGSSPYDHWGQGTQVTVSS	high polyreactivity
QVQLVESGGGLFQAGGSLRLSCAPSGSIFQYNAMGWYRQAPGKERELVAAINRRGTRTYYADSVKGRFTISRDNAKNTVYLQMNSLKPEDTAVYYCNKYQSTDVRSSYSAGYGYWGQGTQVTVSS	high polyreactivity
QVQLVESGGGLVQAGGSLRLSCAASGSTFRWYAMGWYRQAPGKERELVAAISRSGGNTYYADSVKGRFTISRDNAKNTVYLQMNSLKPEDTAVYYCAARKLYGSPEHGYWGQGTQVTVSS	high polyreactivity
QVQLVESGGGLVQAGGSLRLSCAASGNIFVYNAMGWYRQAPGKERELVAAISWTGGSTYYADSVKGRFTISRDNAKNTVYLQMNSLKPEDTAVYYCAKSFGIWHARWLTYDYWGQGTQVTVSS	low polyreactivity
QVQLVESGGGLVQAGGSLRLSCAASGLILYTYAMGWYRQAPGKERELVAALNSGGRTYSADSVKGRFTISRDNAKNTVYLQMNSLKPEDTAVYYCAADYGSRVRGFNYWGQGTQVTVSS	low polyreactivity
QLQLVESGGVLVQAGASLRLSCAATVSTFIYYAMGWYRQAPGKEREVVAAISKRGGNTYYADSVKGRFTISRDNAKNTVYLQMNSLKPEDTAVYYCAARVYGTSRRYYSWGQGTQVTVSS	high polyreactivity
QVQLVESGGALVQAGGSLRLSCAASGRILRGNAMGWYRPAPGKERELVADINYSDGSTYYADSVKGRFTISRDNAKNTVYLQMNSLKPEDTAVYYCAKKNPLVFTSGMDYWGQGTQVTVSS	low polyreactivity
QVQLVESGGGLVQAGGSLRLSCAASGRTFGVYAMGWYRQAPGKERELVPAIRWSGGGTYYADSVKGRFTISRDTAKNTVYVQMNSLKPEDTAVYYCAASFQNSPYTRYTDMYYWGQGTQVTVTS	low polyreactivity
QVQLVESGGGLVQAGGSLRLSCAASGFISRYYGMGWYRQAPGKERELVAAISWSGGRTHYADSVKGRFTISRDNAKNTVYLQMNSLKPEDTAVYYCATDRYYRPGGEYDYWGQGTQVTVSS	high polyreactivity
QVQLVESGGGLVQAGGSLRLSCAASGSTLPRYTMGWYRQAPGKERELVAAISFSGSSTYYADSVKGRFTISRDNAKNTVYLQMNSMKPEDTSVYYCRYGYNYWGQGTQVTVSS	high polyreactivity
QVQLVESGGGLVQAGGSLRLSCAASGYIFTPYAMGWYRQAPGKERELVAAITGSGSSTYYADSVKGRFTISRDNAKNTVYLQMNSLKPEDTAGYYCAADSYGFYGYYYYELEYWGQGTQVTVSS	low polyreactivity
QVQLVESGGGLVQAGGSLRLSCAASGSTFQTNARGWYRQAPGKERELVAAITWSGTSTYADSVKGRFTISRDNAKNPGYFQMNSLKPDDTAVYYCAAPILSFPSPYVQYDYWGLGTQVTVSS	low polyreactivity
QVQLVESWGGLVQAGGSLRLSCAASGSTFSPYAMGWYRQAPGKEREMVATINRGGGSTNYADSVKGRFTISRDNAKNTVYLQMNSRKPEDTAVYYCARVNAAVGYYYRYEYWGHGTQVTVSS	high polyreactivity
QVQLVESGGGLVQAGGSLRLSCAASGFIFARYAMGWYRQAPGKERELVAAISSSGGITYYADSVKGRFTISRDNAKNTVYFQMNSLKPEDTAVYYCAAPLGGGARWGRWWLYDSWGQGTQVTVSS	low polyreactivity
